Laboratory results taken from patent US20230340128A1.

Assays:
[1] = molecular target: human mesothelin (MSLN) (human) (UniProt Q13421); experiment: BLI (Octet), multiple concentrations, bsAb in 1+1 Fab-scFv-Fc format
[2] = molecular target: cyno MSLN (Macaca fascicularis); experiment: BLI (Octet), bsAb in 1+1 Fab-scFv-Fc format
[3] = molecular target: human mesothelin (MSLN) (human) (UniProt Q13421); experiment: BLI (Octet), bsAb in 1+1 Fab-scFv-Fc format

Row | Binder | Kd [1] [nM] | Response [1] | koff [1] [s⁻¹] | kon [1] [M⁻¹ s⁻¹] | Kd [2] [nM] | Response [2] | koff [2] [s⁻¹] | kon [2] [M⁻¹ s⁻¹] | Kd [3] [nM] | Response [3] | koff [3] [s⁻¹] | kon [3] [M⁻¹ s⁻¹]
1 | XENP32560 (bispecific antibody, part only; not given: anti-CD3 scFv-Fc arm, constant regions, V domains shown, not shown: another chain or arm of the molecule; a dimerising Fc or GST; small tags and cut ends) VH: QVQLVQSGAEVKKPGASVKVSCKASGYTFTSYWMHWVRQAPGQGLEWMGMIHPNSDNTIYYEKFQGRVTMTVDKSISTAYMELSRLRSDDTAVYYCAIIITPVVPKFDYWGQGTLVTVSS VL: DIVMTQSPDSLAVSLGERATINCKASQDVGTSVAWYQQKPGQSPKLLIYWASTRHTGVPDRFTGSGSGTDFTLTISSLQAEDVAVYFCQQYSSYPLTFGAGTKLEIK |  |  |  |  | 1.2 | 0.948 | 0.000762 | 634000 | 0.633 | 1.03 | 0.000383 | 605000
2 | XENP32943 (bispecific antibody, part only; not given: anti-CD3 scFv-Fc arm, constant regions, V domains shown, not shown: another chain or arm of the molecule; a dimerising Fc or GST; small tags and cut ends) VH: QVQLVQSGAEVKKPGASVKVSCKASGYTFTSYWMHWVRQAPGQGLEWMGWIHPNSDNTIYYEKFQGRVTMTVDKSISTAYMELSRLRSDDTAVYYCAIIITPVVPKFDYWGQGTLVTVSS VL: DIVMTQSPDSLAVSLGERATINCKASHDVGTSVAWYQQKPGQSPKLLIYWASTRHTGVPDRFTGSGSGTDFTLTISSLQAEDVAVYFCQQYSSIPLTFGAGTKLEIK |  | 0.0022 |  |  |  |  |  |  |  |  |  | 
3 | XENP32940 (bispecific antibody, part only; not given: anti-CD3 scFv-Fc arm, constant regions, V domains shown, not shown: another chain or arm of the molecule; a dimerising Fc or GST; small tags and cut ends) VH: QVQLVQSGAEVKKPGASVKVSCKASGYTFTSYWMHWVRQAPGQGLEWMGWIHPNSDNTIYYEKFQGRVTMTVDKSISTAYMELSRLRSDDTAVYYCAIIITPVVPKFDYWGQGTLVTVSS VL: DIVMTQSPDSLAVSLGERATINCKASHDVGTSVAWYQQKPGQSPKLLIYWASTRHTGVPDRFTGSGSGTDFTLTISSLQAEDVAVYFCQQYSSFPLTFGAGTKLEIK | 246 | 0.136 | 0.0816 | 332000 |  |  |  |  |  |  |  | 

Now from value to binder:

Row | Kd [1] [nM] | Response [1] | koff [1] [s⁻¹] | kon [1] [M⁻¹ s⁻¹] | Kd [2] [nM] | Response [2] | koff [2] [s⁻¹] | kon [2] [M⁻¹ s⁻¹] | Kd [3] [nM] | Response [3] | koff [3] [s⁻¹] | kon [3] [M⁻¹ s⁻¹] | Binder
4 | 16.2 | 0.169 | 0.0103 | 635000 |  |  |  |  |  |  |  |  | XENP32938 (bispecific antibody, part only; not given: anti-CD3 scFv-Fc arm, constant regions, V domains shown, not shown: another chain or arm of the molecule; a dimerising Fc or GST; small tags and cut ends) VH: QVQLVQSGAEVKKPGASVKVSCKASGYTFTSYWMHWVRQAPGQGLEWMGMIHPNSDNTIYYYKFQGRVTMTVDKSISTAYMELSRLRSDDTAVYYCAIIITPVVPKFDYWGQGTLVTVSS VL: DIVMTQSPDSLAVSLGERATINCKASHDVGTSVAWYQQKPGQSPKLLIYWASTRHTGVPDRFTGSGSGTDFTLTISSLQAEDVAVYFCQQYYSYPLTFGAGTKLEIK
5 | 90.4 | 0.202 | 0.0383 | 424000 |  |  |  |  |  |  |  |  | XENP32939 (bispecific antibody, part only; not given: anti-CD3 scFv-Fc arm, constant regions, V domains shown, not shown: another chain or arm of the molecule; a dimerising Fc or GST; small tags and cut ends) VH: QVQLVQSGAEVKKPGASVKVSCKASGYTFTSYWMHWVRQAPGQGLEWMGWIHPNSDNTIYYEKFQGRVTMTVDKSISTAYMELSRLRSDDTAVYYCAIIITPVVPKFDYWGQGTLVTVSS VL: DIVMTQSPDSLAVSLGERATINCKASHDVGQSVAWYQQKPGQSPKLLIYWASTRHTGVPDRFTGSGSGTDFTLTISSLQAEDVAVYFCQQYSSYPLTFGAGTKLEIK
